Measurements published in article PMC6352406 (Annals of the Rheumatic Diseases, 2018).
Where two headings read alike, the source gives them in different places.

B1: VIB9600, humanised effector-null anti-FcγRIIA antibody (antibody, V domains shown)
VH: QVQLVQSGAEVKKPGASVKVSCKASGYTFTNYGMNWVRQAPGQRLEWMGWLNTYTGESWYPDDFKGRVTITRDTSASTAYMELSSLRSEDTAVYYCARGDYGYDDPLDYWGQGTLVTVSS
VL: DIVMTQSPLSLPVTPGEPASISCRSSKSLLHTNQNTYLHWFLQKPGQSPQLLIYRMSVLASGVPDRFSGSGSGTDFTLKISRVEAEDVGVYYCMQHLEYPLTFGQGTKLEIK

Assays:
[1] = biological target: Human FcγRIIA 131R (Homo sapiens, FCGR2A 131R allele) (UniProt P12318); experiment: SPR
Human FcγRIIA 131R (Homo sapiens, FCGR2A 131R allele), sequence (P12318 whole entry, looked up, tested part not stated): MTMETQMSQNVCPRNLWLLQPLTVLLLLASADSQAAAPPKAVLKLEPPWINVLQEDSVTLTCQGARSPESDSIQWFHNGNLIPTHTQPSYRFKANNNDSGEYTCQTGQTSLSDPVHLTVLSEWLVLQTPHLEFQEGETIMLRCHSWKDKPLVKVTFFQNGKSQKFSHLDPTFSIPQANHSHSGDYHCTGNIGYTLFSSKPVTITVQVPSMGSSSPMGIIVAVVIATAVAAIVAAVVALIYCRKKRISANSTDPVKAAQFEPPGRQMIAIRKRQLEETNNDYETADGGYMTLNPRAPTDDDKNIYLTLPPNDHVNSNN

[2] = biological target: Human FcγRIIA 131H (Homo sapiens, FCGR2A 131H allele) (UniProt P12318); experiment: SPR
Human FcγRIIA 131H (Homo sapiens, FCGR2A 131H allele), sequence (P12318 34-317): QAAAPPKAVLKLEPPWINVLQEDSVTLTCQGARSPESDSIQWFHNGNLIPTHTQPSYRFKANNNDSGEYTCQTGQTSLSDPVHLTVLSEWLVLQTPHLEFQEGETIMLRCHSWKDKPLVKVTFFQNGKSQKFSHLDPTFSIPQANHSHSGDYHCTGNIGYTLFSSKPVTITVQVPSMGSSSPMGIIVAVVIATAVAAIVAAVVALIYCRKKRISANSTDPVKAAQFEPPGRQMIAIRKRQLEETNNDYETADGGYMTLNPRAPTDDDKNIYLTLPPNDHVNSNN

[3] = biological target: T1, FcγRIIA on human neutrophils (Homo sapiens, endogenous on …, UniProt P12318); experiment: flow cytometry on cells
T1 sequence (P12318 34-317): as above

[4] = biological target: T1, FcγRIIA on human neutrophils; experiment: flow cytometry on cells; remark: listed apart in the source

| Molecule | Kd [1] [nM] | koff [1] [s⁻¹] | kon [1] [M⁻¹ s⁻¹] | Kd [2] [nM] | koff [2] [s⁻¹] | kon [2] [M⁻¹ s⁻¹] | EC50 [3] [nM] | EC50 [4] [nM] |
| --- | --- | --- | --- | --- | --- | --- | --- | --- |
| IV.3 Fab | 0.22 | 0.00129 | 5.95e+06 | 0.22 | 0.000681 | 3.03e+06 | – | – |
| VIB9600 Fab | 0.15 | 0.000735 | 4.98e+06 | 0.13 | 0.000337 | – | – | – |
| B1 | – | – | – | – | – | – | 3.35 | 0.03 |
